Data as given in US20110159022A1, “Immunogenic Peptides Derived from the Midkine Protein, as an Anticancer Vaccine” (priority 2008, published 2011).
Positions count from the first letter of the chain named.

Assays:
HLA-DR3 (DRB1*0301) = HLA-DR3 (DRB1*0301) (Homo sapiens, UniProt P01903+P01911, A100K/A102G/A103R/A169T/F55Y/I96L/K41T/L162R/M171V/P40S/Q125H/Q178H/Q39Y/R42S/S66N/T106N/T262R/W38E/Y61H); experiment: HLA II/peptide competition binding assay, DR3; conditions: ratio of IC50 of competitor peptide to IC50 of reference peptide; mean of at least two independent experiments; less than 100 = active
HLA-DP401 (DPB1*0401) = target: T1, HLA-DP401 (DPB1*0401) (Homo sapiens, UniProt P04440+P20036); assay type: binding; conditions: ratio of IC50 of competitor peptide to IC50 of reference peptide; mean of at least two independent experiments; less than 100 = active
T1 sequence (P04440 30-258): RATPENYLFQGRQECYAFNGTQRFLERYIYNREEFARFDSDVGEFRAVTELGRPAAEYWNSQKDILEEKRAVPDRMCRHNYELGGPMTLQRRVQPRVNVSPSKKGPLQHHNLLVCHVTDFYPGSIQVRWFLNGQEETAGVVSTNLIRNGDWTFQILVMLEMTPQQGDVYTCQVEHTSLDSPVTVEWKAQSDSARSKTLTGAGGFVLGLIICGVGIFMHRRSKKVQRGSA
T1 sequence (P20036 29-260): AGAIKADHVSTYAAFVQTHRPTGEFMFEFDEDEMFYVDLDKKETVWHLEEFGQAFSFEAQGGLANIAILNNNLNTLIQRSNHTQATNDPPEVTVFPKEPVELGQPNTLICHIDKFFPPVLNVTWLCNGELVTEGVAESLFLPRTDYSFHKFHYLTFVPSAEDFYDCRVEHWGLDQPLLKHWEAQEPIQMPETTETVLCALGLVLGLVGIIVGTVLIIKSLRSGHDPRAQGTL

HLA-DP402 (DPB1*0402) = target: T2, HLA-DP402 (DPB1*0402) (Homo sapiens, UniProt P04440+P20036, A65V/A84D/A85E/L207M); assay type: binding; conditions: ratio of IC50 of competitor peptide to IC50 of reference peptide; mean of at least two independent experiments; less than 100 = active
T2 sequence (P04440 30-258 A65V/A84D/A85E): T1 sequence (P04440 30-258) with A36V, A55D, A56E
T2 sequence (P20036 29-260): T1 sequence (P20036 29-260)

HLA-DR15 (DRB1*1501) = HLA-DR15 (DRB1*1501) (Homo sapiens, UniProt P01903+P01911); experiment: HLA II/peptide competition binding assay, DR15; conditions: ratio of IC50 of competitor peptide to IC50 of reference peptide; mean of at least two independent experiments; less than 100 = active
HLA-DR4 (DRB1*0401) = HLA-DR4 (DRB1*0401) (Homo sapiens, UniProt P01903+P01911, A100K/A169T/F76Y/I96L/K127E/L162R/M171V/N62H/P40V/Q125Y/R42H/S133A/S149N/S66Y/V115G/V209L/W38E); experiment: HLA II/peptide competition binding assay, DR4; conditions: ratio of IC50 of competitor peptide to IC50 of reference peptide; mean of at least two independent experiments; less than 100 = active
HLA-DRB4 (DRB4*0101) = HLA-DRB4 (DRB4*0101) (Homo sapiens, UniProt P01903+P13762, G164S); experiment: HLA II/peptide competition binding assay, DRB4; conditions: ratio of IC50 of competitor peptide to IC50 of reference peptide; mean of at least two independent experiments; less than 100 = active
HLA-DRB3 (DRB3*0101) = HLA-DRB3 (DRB3*0101) (Homo sapiens, UniProt P01903+P79483); experiment: HLA II/peptide competition binding assay, DRB3; conditions: ratio of IC50 of competitor peptide to IC50 of reference peptide; mean of at least two independent experiments; less than 100 = active
HLA-DR13 (DRB1*1301) = HLA-DR13 (DRB1*1301) (Homo sapiens, UniProt P01903+P01911, A100E/A169T/K41T/L162R/M171V/P40S/Q125H/Q178H/Q39Y/Q99D/R42S/S66N/T262R/W38E/Y61H); experiment: HLA II/peptide competition binding assay, DR13; conditions: ratio of IC50 of competitor peptide to IC50 of reference peptide; mean of at least two independent experiments; less than 100 = active
[1] = test system: 12 predominant HLA II molecules; experiment: HLA II/peptide binding assays, count over the panel; set-up: species or system human; conditions: relative activity of less than 100 characterizes the active peptides
Text: The assays for binding to HLA II molecules are competition binding assays with immunoenzymatic visualization, as described in U.S. Pat. No. 6,649,166 and PCT international application WO 03/040299, respectively, for the HLA-DR and HLA-DP4 molecules. The implementation of these assays for measuring the binding activity of peptides derived from various antigens is illustrated in U.S. Pat. No. 6,649,166 and PCT international applications WO 02/090382, WO 03/040299 and WO 2004/014936.
The sensitivity of each test is reflected by the IC50 values observed with the nonbiotinylated peptides which correspond to the tracers. […] The results are expressed in the form of relative activity (ratio of the IC50 of the competitor peptide to that of the reference peptide (nonbiotinylated peptide which corresponds to the tracer)). A relative activity of less than 100 characterizes the active peptides.

[2] = test system: CD8^+ T lymphocytes of healthy individuals possessing the HLA-A2 molecule; experiment: In vitro induction of peptide-specific CD8+ T lymphocyte lines, IFN-γ Elispot; assay type: cell-based, human; conditions: for Ability to induce an in vitro CD8+ T lymphocyte response: cells from healthy HLA-A2 individuals, 4 weeks of culture
Procedure: The PBMCs were then cultured in AIM V medium (Life Technologies) and incubated overnight at 37° C. in the presence of 5% CO2/95% air. The CD8^+ T lymphocytes were purified from the nonadherent cells by immunomagnetic sorting, and frozen. The adherent cells were differentiated into immature dendritic cells by culturing for 5 days in AIM V medium containing 1000 U/ml of GM-CSF and 1000 U/ml of IL-4, and then into mature dendritic cells by culturing for 2 days in the presence of 1 μg/ml of LPS, 1000 U/ml of IL-4 and 1000 U/ml of GM-CSF. The mature dendritic cells were incubated in the presence of 5 μg/ml of beta-2-microglobulin and 10 μg/ml of each of the peptides of table IV. After 4 hours, the cells were washed and then placed in culture in 96-well plates, in the presence of purified CD8 T lymphocytes in IMDM medium containing 10% of group AB human serum, IL-6 (1000 U/ml) and IL-12 (5 ng/ml). Each week, the culture was restimulated with autologous mature dendritic cells loaded with the peptide mixture mentioned above, in medium containing 20 U/ml of IL-2 and 10 ng/ml of IL-7. After 4 weeks of culture, the specificity of the T cell lines contained in each well was tested by IFN-γ Elispot.
Anti-IFN-γ antibodies (1-D1K, Mabtech) diluted to 2.5 μg/ml in PBS buffer were adsorbed onto nitrocellulose plates (Millipore) for 1 hour at 37° C. The plates were then washed with PBS and then saturated with Iscove medium containing 10% of group AB human serum (100 μg/well), for 2 h at 37° C.
In order to verify the specificity of the lines with respect to the HLA-A2 molecule, the C1R cells transfected with HLA-A2 (30 000 cells/well) and 5000 test lymphocytes were then added to the plates and incubated for 24 h at 37° C., in the presence or absence of a single peptide (10 μg of peptide) or of a mixture of peptides (10 μg of each peptide). For the dose-response analyses, the peptides are used at various concentrations ranging from 0.001 to 10 μg/ml.
After three successive washes with water, PBS buffer/0.05% Tween and PBS alone, 100 μl of biotinylated anti-IFN-γ secondary antibody (7-B6-1-biotin, Mabtech), diluted to 0.25 μg/ml in PBS containing 1% BSA, were added to each well. After one hour of incubation at ambient temperature, the plates were washed again and then incubated for one hour at ambient temperature with 100 μg/well of Extravidin-AKP (E-2636, Sigma), diluted to 1/6000. After washing of the plates in PBS buffer, 100 μl of NBT/BCIP substrate B-5655, Sigma), diluted in water (1 tablet in 10 ml of water), were distributed in each well. The immunoenzymatic visualization was stopped after approximately 10 minutes, by thorough rinsing of the plates in water. After drying of the plates, the colored spots were counted using an automatic reader (AID). The lines are considered to be positive when the number of spots is more than three times that obtained with the negative control (control without peptides) with a minimum of 50 spots. The control without presenting cells makes it possible to verify the specificity of the response for HLA-A2 (restriction control).

| Substance | Relative binding activity, DR3 (HLA-DR3 (DRB1*0301)) | Relative binding activity, DR15 (HLA-DR15 (DRB1*1501)) | Relative binding activity, DR4 (HLA-DR4 (DRB1*0401)) | Relative binding activity, DR13 (HLA-DR13 (DRB1*1301)) | Total (number of the 12 predominant HLA II molecules bound) [1] | Ability to induce an in vitro CD8+ T lymphocyte response [2] | other results |
| --- | --- | --- | --- | --- | --- | --- | --- |
| E T I R V T K P C T P K T K A (ETIRVTKPCTPKTKA) [MDK 119-133] | >419 | >529 | 1 289 | >2 537 | – | – | Relative binding activity, DP401 (HLA-DP401 (DPB1*0401)): >879; Relative binding activity, DP402 (HLA-DP402 (DPB1*0402)): >976; Relative binding activity, DRB4 (HLA-DRB4 (DRB4*0101)): >28 868; Relative binding activity, DRB3 (HLA-DRB3 (DRB3*0101)): >485 |
| L L A L T S A V A K K K D K V (LLALTSAVAKKKDKV; MDK 14-28 peptide) | >419 | >529 | – | – | 4 | – | Relative binding activity, DP401 (HLA-DP401 (DPB1*0401)): >879; Relative binding activity, DP402 (HLA-DP402 (DPB1*0402)): >976; Relative binding activity, DRB4 (HLA-DRB4 (DRB4*0101)): >28 868; Relative binding activity, DRB3 (HLA-DRB3 (DRB3*0101)): >485; Total (number of the 12 predominant HLA II molecules bound) ([1]; listed as 14-28): several |
| LALLALTSAV (MDK 12-21 peptide) | – | – | – | – | – | induced CD8^+ T lymphocytes | Peptide specificity of CD8+ T lymphocyte line 267.29A ([2]; FIG. 2): specific |
| LLALTSAVA (MDK 14-22 peptide) | – | – | – | – | – | induced CD8^+ T lymphocytes | Peptide specificity of CD8+ T lymphocyte line 278.11A ([2]; FIG. 2): specific |
| M Q H R G F L L L T L L A L L (MQHRGFLLLTLLALL; MDK 1-15 peptide) | >419 | 211 | 226 | >2 537 | 5 | – | Total (number of the 12 predominant HLA II molecules bound) ([1]; listed as 1-15): several |
| NAQCQETIRV (MDK 113-122 peptide) | – | – | – | – | – | induced CD8^+ T lymphocytes | – |
| R G F L L L T L L A L L A L T (RGFLLLTLLALLALT; MDK 4-18 peptide) | >419 | – | 136 | >2 537 | 9 | – | Total (number of the 12 predominant HLA II molecules bound) ([1]; listed as 4-18): several |
